From article PMC2266796, “The Assembly of the Plasmodial PLP Synthase Complex Follows a Defined Course” (PLoS ONE, 2008)

B3: PfPdx1 K151A (enzyme)
chain: MENHKDDAVLLKHGWCEMLKGGVIMDVKSVEQAKIAEEAGAIGVMVLENIPSELRNKEGVARSVDPSKVEEIKKCVSINVLAKVRIGHFVEAQILEELKIDMIDESEVLTIADEMHHIDKHKFKTPFVCGCTNLGEALRRISEGASMIRTAGEAGTGNIIEAIKHIRTVNNEIKYLCSLSDSEVYHFAKKINAPIDLVLLTKKLKRLPVVNFAAGGVATPADAAMCMQLGMDGVFVGSGIFESENPRKMAASIVSAVSNFNNPKILLDVSMNLGKAMCGSTRVSDKWKNKNEEHTKFLTPQ
notes: Pdx1 of Plasmodium falciparum in pASK-IBA3, point mutant; source: E. coli BLR (DE3); purified (Strep-Tactin) for light scattering; cell homogenate for co-purification
B4: PfPdx1 DKK (D26A/K83A/K151A) triple mutant (enzyme)
chain: MENHKDDAVLLKHGWCEMLKGGVIMAVKSVEQAKIAEEAGAIGVMVLENIPSELRNKEGVARSVDPSKVEEIKKCVSINVLAAVRIGHFVEAQILEELKIDMIDESEVLTIADEMHHIDKHKFKTPFVCGCTNLGEALRRISEGASMIRTAGEAGTGNIIEAIKHIRTVNNEIKYLCSLSDSEVYHFAKKINAPIDLVLLTKKLKRLPVVNFAAGGVATPADAAMCMQLGMDGVFVGSGIFESENPRKMAASIVSAVSNFNNPKILLDVSMNLGKAMCGSTRVSDKWKNKNEEHTKFLTPQ
notes: Pdx1 of Plasmodium falciparum in pASK-IBA3, triple mutant; Hexamer without additive; about half dodecamer with 10 mM glutamine; also called DKK to AAA (D26/K83/K151); DKK mutant; source: E. coli BLR (DE3); purified (Strep-Tactin) for light scattering; cell homogenate for co-purification

Legend:
[1] = target: B4; assay: cell-based or functional assay
[2] = target: PfPdx1 K83A (P. falciparum, UniProt C6KT50 1-301, K83A); assay: cell-based or functional assay
[3] = target: PfPdx1 ERR (E136A/R139A/R140A) triple mutant (P. falciparum, UniProt C6KT50 1-301, E136 to alanine | R139 to alanine | R140 to alanine); assay: cell-based or functional assay
[4] = target: PfPdx1 D26A (P. falciparum, UniProt C6KT50 1-301, D26A); assay: cell-based or functional assay
[5] = target: B3; assay: cell-based or functional assay
[6] = target: the molecule itself; assay: SEC-MALS; 100 ug purified Strep-tagged PfPdx1 on Superdex 200 10/30 with static light scattering (miniDAWN Tristar); 100 mM Tris-HCl pH 8.0, 150 mM NaCl, no amino acid added
[7] = target: the molecule itself; assay: SEC-MALS; as a2, with 10 mM glutamine in the elution buffer

B1: PfPdx2HIS wild-type (Plasmodium falciparum Pdx2 with C-terminal 6x His-tag) (enzyme)
chain: MSEITIGVLSLQGDFEPHINHFIKLQIPSLNIIQVRNVHDLGLCDGLVIPGGESTTVRRCCAYENDTLYNALVHFIHVLKKPIWGTCAGCILLSKNVENIKLYSNFGNKFSFGGLDITICRNFYGSQNDSFICSLNIISDSSAFKKDLTAACIRAPYIREILSDEVKVLATFSHESYGPNIIAAVEQNNCLGTVFHPELLPHTAFQQYFYEKVKNYKYS
B1 was tested, and the “glutaminase activity of PfPdx2 mixed equimolar with the PfPdx1 variant” value (shortened to “glutaminase activity”) [1] was 274 mU mg^−1, the “glutaminase activity” value [2] was 291 mU mg^−1 and the “glutaminase activity” value [3] was 286 mU mg^−1. The “glutaminase activity” value [4] was 285 mU mg^−1 and the “glutaminase activity” value [5] was 251 mU mg^−1.

B2: PfPdx1 wild-type (Plasmodium falciparum Pdx1, Strep-tagged) (enzyme, P. falciparum, UniProt C6KT50 1-301, looked up)
chain: MENHKDDAVLLKHGWCEMLKGGVIMDVKSVEQAKIAEEAGAIGVMVLENIPSELRNKEGVARSVDPSKVEEIKKCVSINVLAKVRIGHFVEAQILEELKIDMIDESEVLTIADEMHHIDKHKFKTPFVCGCTNLGEALRRISEGASMIRTKGEAGTGNIIEAIKHIRTVNNEIKYLCSLSDSEVYHFAKKINAPIDLVLLTKKLKRLPVVNFAAGGVATPADAAMCMQLGMDGVFVGSGIFESENPRKMAASIVSAVSNFNNPKILLDVSMNLGKAMCGSTRVSDKWKNKNEEHTKFLTPQ
notes: molecular mass used for light scattering 34.2 kDa; also called PfPdx1 WT; plasmodial Pdx1; source: E. coli BLR (DE3); purified (Strep-Tactin) for light scattering; cell homogenate for co-purification; copies: 12
For B2, the “stoichiometry N” value [6] was 12.

For B3, the “stoichiometry N” value [6] was 6.

B4 was tested, and the “stoichiometry N” value [6] was 6 and the “stoichiometry N” value [7] was 12.
